Data published in patent publication CN108997499A (BEIJING CHEST HOSPITAL CAPITAL MEDICAL UNIV; BEIJING …, dated 2018).

Biological target: T1, PD-L1-his蛋白 (人PD-L1胞外区, his标签) (human, UniProt Q9NZQ7 19-238)
T1 construct: extracellular domain; also called PD-L1蛋白; PD-L1-his蛋白标准品; not shown: his tag
Experiment: sandwich ELISA, PD-L1 antibody as capture, biotinylated antibody X as detection, HRP-Streptavidin

T1 sequence (Q9NZQ7 19-238): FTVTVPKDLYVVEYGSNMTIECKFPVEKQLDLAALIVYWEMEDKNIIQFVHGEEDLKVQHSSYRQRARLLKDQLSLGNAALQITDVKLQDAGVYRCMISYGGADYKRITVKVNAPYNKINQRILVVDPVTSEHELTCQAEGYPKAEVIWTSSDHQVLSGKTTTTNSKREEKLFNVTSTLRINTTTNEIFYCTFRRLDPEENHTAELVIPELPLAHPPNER

- binding result: binds
B1: 抗体X (非封阻型抗PD-L1抗体) (antibody, V domains shown)
VH: QVQLQQSGTELMKPGASVKISCKATGYTFSNYWIEWVKQRPGHGLEWIGEILPGSGNTNYNENFKGKATFTADTSSNTAYMQLSRLTSEDSAVYYCARERASTSWGQGTLVTVSA
VL: DIQMTQTTSSLSASLGDRVTITCSASQGISNYLNWYQQNPDGTVKLLIYYTSHLHSGVSSRFSGSGSGTDYSLTISNLEPEDIATYYCQQYVKLPWTFGGGTKLEIK
notes: Used biotin-labelled as the detection antibody; also called PD-L1抗体X; 第二抗体
